This data set can be described thus: soluble on expression in E. coli; label from the status in PepcDB or PDB records.
Take “MAHHHHHHMSGPPKQCYYELLQVDRKASSEEIRQAYKKQALIHHPDKNYSNEQSTIEKFKDIQNAYAVLSDPDERAWYDAHRESILNGEDADSSQHEVNLYCYFTSRCFDGFDDNEGGFYSVYRKVFDQLIEDESEYSSNAKTWPRFGDSATSWSSVSKFYSHWRNFSSCKTFAWKDEYKVNEIPDRASRRMAERINQKLRTSAKKEYVQIVQGLTRFVHRRDPRVAAELTRQEEERRLKEEEREKRELEWAKNRREANEKLWAEAAEKEAEEERARIERGEAPDSCTLDLLYEKQRQCEEARKVKGGTNCGFAMLEDEHEDNLPEKKRSCPACKKQFKTDAQYKEHVNSSKHKAKLRQLSAKGVDIETLMNEEKDISTCV”: the “soluble on expression in E. coli” value is given as “soluble”.
Under “MAHHHHHHMSKAVQQIFEDYNRSRAQFTQSIYDMCLKAHHMEVIISTDIIMLLRPLILDKVPIVQQNATQILGKMASHSEEVALTILQNDVLPHLVYCLKHENKNYRKNCANTLRCLASHNAKLANLVAEEENCIDNLVDSLDEYDVRLKEACLNALCAIGKHDVDLSKQLMAKGIIPLVILSLQEKDTNLVRSSLNILTELSKHTNEIAKEVVDNNALPHLIKFLDHTDVQVKRYACNCLAQIAKHKEELTELIIESDVFPRVIYLLNDSDDVVKKNCANCLKEMSKHNEDICKIIARAGSLPFLCECIEQSSKGAVKLPAILCIGFIASFSESLSLNIILSNAIPILKKCLIGEEEDYIKASCVWAVGNIGKHSSSHAKKLSDENLLIILVNLYNANDSSDDLKKKVKLSFKGVIQKVTDLESLEPVFLKATAKLAKYCICQFAKIIPKSPAHKKAFIKSGCLKRLQVGRQSSCAIFPRCRVTVLPPYRPSAHPCTPSPLHRK” stands “not soluble”.
Under “MAHHHHHHMSLLRMCYRSIDITVKSRHARTFLKKRLMEQWAAKCKEPNPEKQRFYMDLAGSFLQALHTERNPKPGKVVNFQLSRQVAYEQKLADREKSAGARRVRRMSKEVKTQDH” stands “not soluble”.
Under “MAHHHHHHMSQKNKKVYDTQNEQENTNSSSNSSSNSDKEIQKDKEEYKKGENNFSILNVEEVNIIELSREELYKVCAELQQKELEALKYIYVLDSELNIKYENDEDKLTIVEINLNDQNISNNHINFTFELPKDYPLGSISIINVTVKNFTPDTNNYINEEVYRYLQRYNEQRECILPVIYKVNEIIENIIQYKEEPGEKSLSSSTEGRSDFDQEQTFNEWDNKNKQRKADIVCFPELSYSMNFSKRPNILARRLCYSHHILSLVKRSCIIKWAKQLKIGGYSKIGYPGIIVCEGPKDEVDFYINSLNKLRWKHFDCRGMEDIELDENENLDDARVLPTTVRELDAKSMRTLSDICTQCGLRDLFLTSMKIYNNNDKKGSVKEKNKNGEENKPGNTKDILKEKGKKKKKRSSK” stands “not soluble”; under “MAHHHHHHMSTMDVPGTAIEQYFNQLIQMRLLTQVIVSDTRGDTTVACLMGLEHGGDAVVSSSEDTYGVAESIMESNVALSGARCFQNLDQLNLGVPLYVSFQYHDDVVVQTLDGCCMLTLIGSRSQGHFVGGLLTLLDQIRSCEAYQELLTQTQLCFR”, “not soluble”.
On to “MAHHHHHHMSTVEDFVLQALASTDAVESDKLAETLRVNHQDVVGAIKSLEADGYVVSEIKPKPTWKLTSEAENICESGSPEFLLWELLAGGAMTQEDIAEKFGKDVAAVAVANGMKAKIFALNKSEGKIIVTRSPSVSSFHDGIRVSLMRALKGEHVDPKEAETLKKRKLATLDNMKVFFVTKGPNYATQRRAKAVGDLTKEMLQDGSWKTAHFKEYNLGAAGREVGCGQLHPLLKVRQEFREIFMELGFREMETDRWVESSFWNFDALFIAQNHPARDVQDTFFVSKPSTHKLDHREVVDRVREMHEKNFNYTWKEEEARRNVLRTHTTCCSGYWLHHIAKSSPLLPNGRRDFCPGRYYSIDRVFRNEEMDRTHLCEFHQVEGCVIDRNISLSNMMHTFQLFFSRIGVEKLRFKPVFNPYTEPSMEIFGWHKQLKRWIEVGNSGLFRPEMLVPLGFDEDVTVMAWGLSLERPTMIKYGLSSIHELFGHKVDLRFIKQSKLMRF”, for which the “soluble on expression in E. coli” value is given as “soluble”.
For “MAHHHHHHMSVPKAALMQIFDLYDTDRAGWIPTKRIPYVLRTCGMISTQTEMETLLHDHFASRDTVTRSGFQKFLEQKDILKAEDFSSEKELATAFQVFDSRESGALTSDEVLTILTRMNEKIDVDAYHRVMDGLELNEQGMVEFAKLAAHMLRSANEYKLTVRQVLEELAE”, the “soluble on expression in E. coli” value is “soluble”.
Under “MAHHHHHHMSVSSPLASSGEREQYGPQEQRQYGFVPVQMTNLVPVRVVSVHGDFFDMEIHQDAPLHIVQRAAEDCFKVRPELQLLTHNRKPINPNQSLRRNGCLLLKGDPFVKIVLDVKKGSRLNIVCQMAHCEPIPLACEAEDTIWDVKKKFCSSLEKSEVTPQRIRLLWRYWELNDKATVDYYHIPTNSKLTVMKKRDILGGQQTERRRAPSQRRRQDVQRRHERCDADTDDVAAWPKAPSVVPPYEKYRQASGREPLEGEDNRSKTPNANGSAQVVEGGADRDSHHPPIRAWPALPQEQFGRAVIPLYPIVPPLSGGSYYREPRAQTPDRRPAVVPVAEATQVVDFTEVQRLRMEVEELGRRMETCVTDRAEFSAMEESFRAAVTRVSELEASVGRVQNLLKRALHLM” stands “not soluble”; under “MAHHHHHHMSVTIKLSNGSQKTVEVPDLNITVAKFKEIASAVTNIPADEQRVVLRGRVLKDGDVLSAMGMEHGQAVHIVRGQKSTKSDVASPSAQESASTQETQTNTNPQARPETVNPYAALAANLPASGGFSNNIPGNPNPGLQMPPELLSNMLQNPAFMQYFQEMMRNPQFLQQRMQQPQQQSQSQSPFGMNEGEMQRLLNNPMFMQLVLQMMSDPSIMQQLTQSLGGGFPASNTPLFGQQNAPAPNFAQNTGFFQPQGDPRVLYQSQLQQLREMGFTNEQANLAALEQAHGNIDFAIERLLNA”, “soluble”.
Under “MAHHHHHHMSWRARFTPCVGSLTVWLNPKDPNCFGVRNWWRNNLPELQLLNPFCTFTIQELSFGEPHMYVNYTPTDQRMIRLAGATEEECEEIMEACITYGMNHAIIERPRTDDGGDLVNQPAITSFGYTESFTAKLEVAPPADIGQKTTEGVDDPGQKPRLYPRNVGCKLMP” stands “not soluble”; under “MAHHHHHHMTAAADFALPDLVLFLRLYDSANVEDGQLLVQVMNEIHRQLFALAETAADAAVARGGSSTPSMAGTTIGEHDLDAANRGVKGISPAPSASPLPLPAMLYTMSSLGIVEEAVLDVVTSSAVQDGARGRRGLLYSQLRLYSVADLLQLLVALHRFGHQQQPSTKAVTMALRASLYRTSTTASRFHRRARSLKRALAARPQTPSSGEGRADAAAADADTGGVAAVIAADEELSSLAFGLGCPLFLLLEALTATATTVHRRTDVVAFLSDLIAVTAVAELTTAVHESRGRRSPAGCEDLAREAQEFVFAVSHQLLRAAKLTECMELPQILLSDVFAWSTTLSGRGVFVDGGEDNAVPSDRVAYYDHVTADLIKANSAE”, “not soluble”; under “MAHHHHHHMTALERYAFKVDYCDPQANLVRQYLLLYFAEDSTIEMHDLKTKRVFLKRCAYPSLTPRELFIGATVGVFSRSLKLVDYGDEVTRRHFSGSEAEFVVFIQEGGLCHMGSIIDRMHTWELRITNIRLVDLPDSLCRDLGVSRRCVAILFKGSNAIEKVGGLSTEFPNMTVVVAEPSDVNSVRGAAFGPGGTTAVMKNCSVCVIKPHAIMSGYQGAIIQRLIDEGFHITALGMYSLTVADAEDFLEVYNGVVPEYQRLVEQMSSGPCWAVQVCAENSVSALRAICGPHDPDVCHVLFPHTIRSKYGVDRTRNGVHCTDLEEDAPLESEFFFSLLQNA”, “not soluble”.
On to “MAHHHHHHMTDVVEAPRPATVAEAFANTAKALEQFNIERIRVEGLSCKSSITHCRKHDKNNMEKEEDVRTLTEQAFMREFVFQSRPCVIVGALEDWPAMQRWRDDRYLFDLDGHLSRVRRETDDAAAPSSEGTAATGDVAVVPKNNDHDSSDDNTHPREREEEKDGLKRVTVALTPNGRADAVTYVTYQGAREEGRENDVDGKKDNVEEHFIKTEKLFMAAAEIRATLPELYHLLRENPLYPPVRPVFVDLRRPAPVVAYAQMQNNCLEVEYQHLHGDIPPELDRFGERVFGEPHEAANVWFGTPASVSSMHQDWVENLYAVVRGVKEFILLPPWEGVFVPKPELPSAAFSVQRQDGVNGYVFSGTPVHDGLTIPWMDVEFTPAALEDVSLMPTNMQERLHPLVVYVQPGEVLYLPAMWLHRVAQHADDTDRLAREKQLTSSLQSAQDPPLPLIAAVNYWYDMSFTNPAVVMLREFGLLL”, for which the “soluble on expression in E. coli” value is “soluble”.
Under “MAHHHHHHMTLKEAIDRDGVPATSSSKQRRLMDIHVTAYPGLVNQHMLPKHNTAVNDFSSIDPLQYRKAHTVRNNNAASYSEKEENVLDMLTTNQCTNRMTRLGMQLREERAKNPKGMPSISSLAPRGYRSRFLSPSFDERSTYRWDYCQWEPDGFHDTVRRELLAAYRDDWTEDEKADVDISMKIPYLTMAVSSDRLKDKATIYRKDFMEDATQADYRSLSYKTNLEDLGTSYAYSAYSIDDPRRKVLFDASVAALKTPHSVLEKTYSPRNSFLEKSLSTKQQSSAREELDRLRTMRREALHLSAAKRSAAESTDDGTTTKTVVIPGIKGSGYRRVPKGNDSYVCLSRDHFCYQQVDNF” stands “not soluble”; under “MAHHHHHHMTTLTHSRPRPLHLPLSPPHTRKNDGAAPAPAHTHPSHFLSVAITVTHTDFVTGTIMKSFFSNITSKLKTRRKPLAPCDCSDFIEAAPAQPSLTHLRGVVAARHFHGAPPPASDVENARRDFVVRSTVFDLQHRCGAGGRCTCAGAPACRFPQCFTMRPVTKGAEVLAERQVYEVEDAPTPEIRALVALAAEEKLEEVVKGIQHTVDAHLKAAARGRGLEARFIIDGSDGHEFTPATPKTGTGSIHAGANPLREDEDLREEITSLYLWRAALLVNLRRDEQAVSSLLNLAFAVEQKDRTRLYGAAAAWAVLNDMEIIYYRSLVKSCKPFDQAVHFATERPLLLARVFEATRGDDYHTDYCTHVVFSKEVTATVTRAQTAQMHGDFTEDPMRSLCLPLTMPYYRFRVDEEFWKRFYALLCMPPVPPPTQEEAKAQAIDPAAELGLTPNYILDAVGRSMMLHHLVTFADVRDKEIDTGVVVDRVKEMKLLDLQPHPSDYTPVLTTSEMHVAVTRMKELLVVVRSFEAKEQERLSGAAAAQRLQRAQSGNDAANPSAAPPAPSPIEK”, “not soluble”.
Regarding “MAHHHHHHMTTVPESTCAASCESQLCLLCDTPYTSWTEHSREHAHVARSVVCRFFVMPERSESIMQHLERHIALDLKEVDALTDRKVGRRRERLLAGLVHLVEKGVLRDSIPTLPFSTPARGGTDKGRGAGISGVTLGVDADLFLNRVLVGEAFLRREVLDRCARLMPSLTAMELNSVVTYLTSTRQMARIFDELSLIELLVTRSGLESAPANVNTATAAATAAGRAAESASVEPLSETAAAPLPDSDASTESPPAHQPCSSTLAASLPSPPRWSLSREDKVYIMCACLGELHRFHEQERPRSVISKAAADAIVLNVLAGHGRENLVSELVHETLQRIVDEGTVVWRQHQEDVKRRGRSSEANVAGAARISARRAPRTDSTVSEDLCYVRTAPLPSAPSPRPASQVTLDSAAAEQLVSSYLPFNDVDQLSGAETDAVKATAEAPSRSSPDRTCTTSPECISVLHTSEKDWGPLTAELRKRAEDWNRLPFVPSTPELKASKMPR”, the “soluble on expression in E. coli” value is “not soluble”.
Under “MAHHHHHHMTVYPSLFVCHGGGPLPLLRDEGHKMLVDALKSHRKLLENRFGLPKAIVVISAHYETNTPKVGGAERPSLLFDYYGFPEESYKFRYPVPGNAPLAAAIVNALTVGGFHAEMEPERLLDHGVFVPLMIMFPEANIPVVPLSVLRSGDPAEHIRMGKALRPLRSDAVMFIGSGSTMHHFAHFNREGAGRKFGDALTSILCKNEVATLPEDRLKAMERVKTMEGFTEAQPLREHEHLMPLLTLVGAANGNIAEEVASISFGRANVRNYLFTE” stands “not soluble”.

Source of the values: the DeepSol protein solubility set.
